Key:
[1] = target: T1, rhNR10 (recombinant human NR10) (human, UniProt Q8NI17 20-519, limits assumed); experiment: SPR, Biacore T100; antibody captured on Protein A, rhNR10 as analyte
T1 construct: also called IL-31 receptor; IL31RA
T1 sequence: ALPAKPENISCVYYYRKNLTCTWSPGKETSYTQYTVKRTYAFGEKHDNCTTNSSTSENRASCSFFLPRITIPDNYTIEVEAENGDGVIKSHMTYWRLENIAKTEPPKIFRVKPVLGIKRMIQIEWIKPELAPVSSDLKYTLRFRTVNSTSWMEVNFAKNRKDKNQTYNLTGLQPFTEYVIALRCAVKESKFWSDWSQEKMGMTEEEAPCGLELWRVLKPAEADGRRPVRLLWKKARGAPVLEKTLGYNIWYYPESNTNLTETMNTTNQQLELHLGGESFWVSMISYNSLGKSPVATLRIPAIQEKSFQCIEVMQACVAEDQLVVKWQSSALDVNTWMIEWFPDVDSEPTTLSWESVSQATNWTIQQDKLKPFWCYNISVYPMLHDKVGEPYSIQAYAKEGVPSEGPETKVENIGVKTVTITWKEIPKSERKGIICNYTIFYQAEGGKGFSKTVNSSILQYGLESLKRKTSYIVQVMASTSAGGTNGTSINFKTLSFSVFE
Procedure: Kinetic analysis of the antigen-antibody reaction was carried out using Biacore T100 (GE Healthcare Biosciences). The antigen-antibody interaction was measured by immobilizing rec-Protein A (hereinafter Protein A) (ZYMED) onto a sensor chip, capturing an antibody on the immobilized Protein A, and then reacting the antigen as an analyte. Various concentrations of rhNR10 were used as the antigen. The kinetic parameters, association rate constant kₐ (1/Ms) and dissociation rate constant kd (1/s), were calculated from the sensorgrams obtained by the measurement. Then, KD (M) was determined based on the rate constants. Each parameter was determined using Biacore T100 Evaluation Software version 1.1 (GE Healthcare Biosciences).
The running buffer used was HBS-EP+. Each antibody was prepared at 0.25 μg/ml, or prepared so that about 100 RU would bind to Protein A. rhNR10 used as an analyte was prepared at 0, 38.5, 77.0, and 154 nM, or at 0, 19.25, and 77.01 nM using HBS-EP+. In the measurement, first, the antibody solution was captured on Protein A, and an analyte solution was reacted at a flow rate of 20 μL/min for three minutes. Then, the solution was switched to HBS-EP+, and the dissociation phase was measured for five minutes. After measurement of the dissociation phase, the sensor chip was regenerated by washing with 10 mM glycine-HCl (pH 1.5). The obtained sensorgrams were kinetically analyzed using the Biacore-specific data analysis software, Biacore T100 Evaluation Software Version 1.1.

[2] = target: T2, mhh (human/mouse chimeric NR10 extracellular domain, His/Myc tagged) (human/mouse chimera); experiment: Western blot of purified His/Myc-tagged NR10-ECD probed with H44M58L17, detected with AP-labeled goat anti-human IgG
T2 construct: C-terminal His-Myc tag
T2 chain: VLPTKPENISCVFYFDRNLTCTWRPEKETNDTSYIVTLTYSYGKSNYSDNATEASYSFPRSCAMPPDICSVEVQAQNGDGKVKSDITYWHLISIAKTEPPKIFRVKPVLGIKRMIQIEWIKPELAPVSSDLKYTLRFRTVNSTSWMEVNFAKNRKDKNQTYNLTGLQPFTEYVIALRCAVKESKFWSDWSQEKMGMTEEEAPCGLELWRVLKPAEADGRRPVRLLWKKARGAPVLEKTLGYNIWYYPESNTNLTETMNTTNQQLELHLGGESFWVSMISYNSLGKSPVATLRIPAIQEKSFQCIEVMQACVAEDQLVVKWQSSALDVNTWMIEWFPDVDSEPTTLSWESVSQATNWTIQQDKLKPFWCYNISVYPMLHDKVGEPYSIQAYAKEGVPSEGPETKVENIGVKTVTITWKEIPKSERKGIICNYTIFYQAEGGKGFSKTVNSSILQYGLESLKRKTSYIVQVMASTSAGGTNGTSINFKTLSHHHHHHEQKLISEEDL
Procedure: (§1) Each of the prepared human/mouse wild-type and chimeric antigens was electrophoresed at 0.5 μg/lane on three 4-20% polyacrylamide gels (Daiichi Pure Chemicals Co.). The proteins were electro-transferred onto PVDF membranes (Millipore) in a semi-dry blotting apparatus, and the membranes were blocked with TBS containing 5% skim milk. One membrane was incubated with 5 μg/ml of H44M58L17 (detection system for humanized anti-human NR10 antibody); another with 5 μg/ml of ND41 (detection system for mouse anti-human NR10 antibody); and the other one with anti-Myc antibody (SantaCruz, Cat.#sc-789) 500-times diluted with TBS containing 5% skim milk (detection system for Myc tag) at room temperature for one hour.
(§2) After washing three times with TBS containing 0.05% Tween™ 20, the secondary antibodies were incubated with the membranes. Alkaline phosphatase-labeled goat anti-human IgGγ (BIOSOURCE, Cat. #AHI0305) was used to detect humanized anti-human NR10 antibody; alkaline phosphatase-labeled goat anti-mouse IgG (SantaCruz, Cat. #sc-2008) was used to detect mouse anti-human NR10 antibody; and alkaline phosphatase-labeled goat anti-rabbit IgG (SantaCruz, Cat. #sc-2057) was used to detect Myc tag. The reaction was carried out at room temperature for one hour. […]

[3] = target: T3, mmh (human/mouse chimeric NR10 extracellular domain, His/Myc tagged) (human/mouse chimera); experiment: Western blotting, 0.5 µg antigen per lane
T3 construct: C-terminal His-Myc tag
T3 chain: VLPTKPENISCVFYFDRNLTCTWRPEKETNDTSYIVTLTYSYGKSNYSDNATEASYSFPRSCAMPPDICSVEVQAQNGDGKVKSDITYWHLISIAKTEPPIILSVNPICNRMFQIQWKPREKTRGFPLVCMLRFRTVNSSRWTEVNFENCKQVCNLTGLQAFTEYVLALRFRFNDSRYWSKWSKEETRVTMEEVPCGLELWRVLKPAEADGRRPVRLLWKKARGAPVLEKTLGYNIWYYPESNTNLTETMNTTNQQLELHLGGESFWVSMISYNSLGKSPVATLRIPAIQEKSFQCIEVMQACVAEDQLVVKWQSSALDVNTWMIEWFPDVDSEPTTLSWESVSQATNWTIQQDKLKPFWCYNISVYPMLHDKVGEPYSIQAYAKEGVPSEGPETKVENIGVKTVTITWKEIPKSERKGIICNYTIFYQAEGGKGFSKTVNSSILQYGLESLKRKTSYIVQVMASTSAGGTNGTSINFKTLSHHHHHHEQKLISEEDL
Procedure: as §1, §2

- Kd [1]: 1.2 nM
- koff [1]: 0.00072 s⁻¹
- kon [1]: 610000 M⁻¹ s⁻¹
- binding result [2]: no binding
- binding result [3]: no binding (tested: 5 µg/ml)
B1: H44L17 (H44-M58 / L17) (antibody, V domains shown)
VH: QVQLVQSGAEVKKPGASVKVSCKASGYTFTGYIMNWVRQAPGQGLEWMGLINPYNGGTDYNPQFQDRVTITADKSTSTAYMELSSLRSEDTAVYYCARDGYDDGPYTLETWGQGTLVTVSS
VL: DIQMTQSPSSLSASVGDRVTITCQASEDIYSFVAWYQQKPGKAPKLLIYNAQTEAQGVPSRFSGSGSGTDFTLTISSLQPEDFATYYCQHHYDSPLTFGGGTKVEIKR
notes: also called humanized anti-human NR10 antibody
